Target: the molecule itself
Assay: electron microscopy; purified dynamin 2 on lipid nanotubes, in the absence of GTP

B1: purified recombinant wild-type human dynamin 2 (His-tagged) (enzyme, UniProt P50570-1 1-870, looked up)
chain: MGNRGMEELIPLVNKLQDAFSSIGQSCHLDLPQIAVVGGQSAGKSSVLENFVGRDFLPRGSGIVTRRPLILQLIFSKTEHAEFLHCKSKKFTDFDEVRQEIEAETDRVTGTNKGISPVPINLRVYSPHVLNLTLIDLPGITKVPVGDQPPDIEYQIKDMILQFISRESSLILAVTPANMDLANSDALKLAKEVDPQGLRTIGVITKLDLMDEGTDARDVLENKLLPLRRGYIGVVNRSQKDIEGKKDIRAALAAERKFFLSHPAYRHMADRMGTPHLQKTLNQQLTNHIRESLPALRSKLQSQLLSLEKEVEEYKNFRPDDPTRKTKALLQMVQQFGVDFEKRIEGSGDQVDTLELSGGARINRIFHERFPFELVKMEFDEKDLRREISYAIKNIHGVRTGLFTPDLAFEAIVKKQVVKLKEPCLKCVDLVIQELINTVRQCTSKLSSYPRLREETERIVTTYIREREGRTKDQILLLIDIEQSYINTNHEDFIGFANAQQRSTQLNKKRAIPNQGEILVIRRGWLTINNISLMKGGSKEYWFVLTAESLSWYKDEEEKEKKYMLPLDNLKIRDVEKGFMSNKHVFAIFNTEQRNVYKDLRQIELACDSQEDVDSWKASFLRAGVYPEKDQAENEDGAQENTFSMDPQLERQVETIRNLVDSYVAIINKSIRDLMPKTIMHLMINNTKAFIHHELLAYLYSSADQSSLMEESADQAQRRDDMLRMYHALKEALNIIGDISTSTVSTPVPPPVDDTWLQSASSHSPTPQRRPVSSIHPPGRPPAVRGPTPGPPLIPVPVGAAASFSAPPIPSRPGPQSVFANSDLFPAPPQIPSRPVRIPPGIPPGVPSRRPPAAPSRPTIIRPAEPSLLD
notes: human dynamin 2 (NM_001005360), wild type, from the same Entry clone as the mammalian constructs; The vector is named pET15b in one paragraph and pET23b in another; no removal of the His tag is told; also called Dynamin 2 WT; DNM2WT
B1: binds.

Reference: PMC7949082, “Mutant BIN1-Dynamin 2 complexes dysregulate membrane remodeling in the pathogenesis of centronuclear myopathy” (The Journal of Biological Chemistry, 2020)
